Patent US20250320281A1

Experiments:
Assay in all cases: cell-based or functional assay
[1] = molecular target: HIV-1 Env of isolate MGRM-A-009 (subtype A) (HIV-1)
[2] = molecular target: HIV-1 Env of isolate MGRM-Chronic-B-011 (subtype B) (HIV-1)
[3] = molecular target: HIV-1 Env of isolate MGRM-AG-011 (subtype AG) (HIV-1)
[4] = molecular target: HIV-1 Env of isolate MG RM-D-021 (HIV-1)
[5] = molecular target: HIV-1 Env of isolate MG RM-D-001 (HIV-1)
[6] = molecular target: HIV-1 Env of isolate MGRM-A-010 (subtype A) (HIV-1)
[7] = molecular target: HIV-1 Env of isolate VLGCB3 (subtype B) (HIV-1)
[8] = molecular target: HIV-1 envelope glycoprotein (Env) of isolate MGRM-C-028 (HIV-1)
[9] = molecular target: HIV-1 Env of isolate MGRM-A-007 (subtype A) (HIV-1)
[10] = molecular target: HIV-1 Env of isolate MGRM-AG-009 (subtype AG) (HIV-1)
[11] = molecular target: HIV-1 Env of isolate MGRM-A-011 (subtype A) (HIV-1)
[12] = molecular target: HIV-1 Env of isolate 93TH305 (HIV-1)
[13] = molecular target: HIV-1 envelope glycoprotein (Env) of isolate MGRM-C-014 (HIV-1)
[14] = molecular target: HIV-1 Env of isolate MGRM-AG-012 (subtype AG) (HIV-1)
[15] = molecular target: HIV-1 Env of isolate 98IN022 (subtype C) (HIV-1)
[16] = molecular target: HIV-1 Env of isolate CAAN.A2 (subtype B) (HIV-1)
[17] = molecular target: HIV-1 Env of isolate 92WR026 (HIV-1)
[18] = molecular target: HIV-1 Env of isolate 92UG046 (HIV-1)
[19] = molecular target: HIV-1 Env of isolate MGRM-Chronic-B-002 (subtype B) (HIV-1)
[20] = molecular target: HIV-1 envelope glycoprotein (Env) of isolate MGRM-C-007 (HIV-1)
[21] = molecular target: HIV-1 Env of isolate 92UG024 (clade D), on pseudovirus (HIV-1)
[22] = molecular target: HIV-1 92BR020 Env (pseudovirus, clade B) (HIV-1)
[23] = molecular target: HIV-1 Env of isolate MGRM-F1-004 (pseudovirus) (HIV-1)
[24] = molecular target: HIV-1 Env of isolate NL43 (subtype B pseudovirus) (HIV-1)
[25] = molecular target: HIV-1 Env of isolate MGRM-Chronic-B-001 (subtype B pseudovirus) (HIV-1)
[26] = molecular target: HIV-1 Env of isolate MGRM-F1-008 (pseudovirus) (HIV-1)
[27] = molecular target: HIV-1 Env of isolate 98CN009 (pseudovirus) (HIV-1)
[28] = molecular target: HIV-1 Env of isolate SC422661.8 (subtype B pseudovirus) (HIV-1)
[29] = molecular target: HIV-1 Env of isolate MGRM-F1-012 (pseudovirus) (HIV-1)
[30] = molecular target: HIV-1 Env of isolate MGRM-D-026 (pseudovirus) (HIV-1)
[31] = molecular target: HIV-1 Env of isolate MGRM-D-001 (pseudovirus) (HIV-1)
[32] = molecular target: HIV-1 CMU02 envelope glycoprotein (Env) on pseudovirus (HIV-1)
[33] = molecular target: HIV-1 Env of isolate MGRM-G-016 (HIV-1)
[34] = molecular target: HIV-1 Env of isolate MGRM-G-015 (HIV-1)

Sequence of 4980_N08 (PGT-143) (antibody) (VH): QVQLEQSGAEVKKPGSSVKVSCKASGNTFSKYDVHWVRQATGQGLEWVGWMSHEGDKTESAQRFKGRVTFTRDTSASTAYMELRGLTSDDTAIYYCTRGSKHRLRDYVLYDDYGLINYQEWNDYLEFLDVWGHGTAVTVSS
Sequence of 4980_N08 (PGT-143) (antibody) (VL): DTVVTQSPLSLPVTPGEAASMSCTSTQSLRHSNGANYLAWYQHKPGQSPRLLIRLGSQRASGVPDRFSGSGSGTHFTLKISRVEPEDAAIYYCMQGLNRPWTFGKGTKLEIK
Sequence of 4993_K13 (PGT-141) (antibody) (VH): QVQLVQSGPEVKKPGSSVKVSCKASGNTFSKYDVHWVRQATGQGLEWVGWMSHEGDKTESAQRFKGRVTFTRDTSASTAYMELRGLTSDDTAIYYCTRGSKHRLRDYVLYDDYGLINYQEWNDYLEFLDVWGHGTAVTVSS
Sequence of 4993_K13 (PGT-141) (antibody) (VL): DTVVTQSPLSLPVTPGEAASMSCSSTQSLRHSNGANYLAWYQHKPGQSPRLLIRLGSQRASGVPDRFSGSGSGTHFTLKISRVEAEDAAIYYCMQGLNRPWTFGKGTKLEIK

| Substance | IC50, pseudovirus neutralization [21] [µg/mL] | IC50 neutralization [22] [µg/mL] | IC50, pseudovirus neutralization [23] [µg/mL] | IC50 (µg/mL), pseudovirus neutralization [24] [µg/mL] | IC50 (µg/mL), pseudovirus neutralization [25] [µg/mL] | IC50, pseudovirus neutralization [26] [µg/mL] | IC50, pseudovirus neutralization [27] [µg/mL] | IC50 (µg/mL), pseudovirus neutralization [28] [µg/mL] | IC50, pseudovirus neutralization [29] [µg/mL] | IC50, pseudovirus neutralization [30] [µg/mL] | IC50, pseudovirus neutralization [31] [µg/mL] | further results |
| --- | --- | --- | --- | --- | --- | --- | --- | --- | --- | --- | --- | --- |
| 5136_H01 (PGT-131) (antibody) |  |  |  |  |  |  |  |  |  |  |  | IC50 (µg/mL), pseudovirus neutralization [1]: 0.035 µg/mL; IC50 neutralization [2]: 6.47 µg/mL; IC50 (µg/mL), pseudovirus neutralization [3]: > 50 µg/mL; IC50 (µg/mL), pseudovirus neutralization [4]: 0.106 µg/mL; IC50 (µg/mL), pseudovirus neutralization [5]: > 50 µg/mL; IC50 (µg/mL), pseudovirus neutralization [6]: 0.01 µg/mL; IC50 neutralization [7]: > 50 µg/mL; IC50 (µg/mL), pseudovirus neutralization [8]: > 50 µg/mL; IC50 (µg/mL), pseudovirus neutralization [9]: > 50 µg/mL; IC50 (µg/mL), pseudovirus neutralization [10]: > 50 µg/mL; IC50 (µg/mL), pseudovirus neutralization [11]: > 50 µg/mL; neutralization IC50 [12]: 0.016 µg/mL; IC50 (µg/mL), pseudovirus neutralization [13]: > 50 µg/mL; IC50 (µg/mL), pseudovirus neutralization [14]: > 50 µg/mL; IC50 neutralization [15]: > 50 µg/mL; IC50 neutralization [16]: > 50 µg/mL; IC50 [17]: 0.041 µg/mL; IC50 (µg/mL), pseudovirus neutralization [18]: > 50 µg/mL; IC50 neutralization [19]: > 50 µg/mL; IC50 (µg/mL), pseudovirus neutralization [20]: > 50 µg/mL |
| 4858_P08 (PGT-123) (antibody) | > 10 | 0.013 | 1.78 | > 50 | 0.15 | > 50 | 0.007 | 0.039 | 22.2 | > 50 | 0.147 | neutralization IC50 [32]: > 10 µg/mL; neutralization IC80 [32]: > 10 µg/mL; neutralization IC90 [32]: > 10 µg/mL; neutralization IC95 [32]: > 10 µg/mL |
| 4980_N08 (PGT-143) (antibody) |  |  |  |  |  |  |  |  |  |  |  | IC50 (µg/mL), pseudovirus neutralization [33]: 7.6 µg/mL; IC50 (µg/mL), pseudovirus neutralization [34]: > 50 µg/mL |
| 4993_K13 (PGT-141) (antibody) |  |  |  |  |  |  |  |  |  |  |  | IC50 (µg/mL), pseudovirus neutralization [33]: 4.69 µg/mL; IC50 (µg/mL), pseudovirus neutralization [34]: > 50 µg/mL |
| 4877_D15 (PGT-122) (antibody) | > 10 | 0.0337 | 1.29 | > 50 | 0.138 | > 50 | 0.013 | 0.103 | > 50 | > 50 | 1.13 |  |
| 5145_B14 (PGT-127) (antibody) |  |  | 0.068 | > 50 | > 50 | > 50 | 0.09 | 36.7 | > 50 | > 50 | 2.23 |  |
| 4838_L06 (PGT-121) (antibody) | > 10 |  | 1.67 | > 50 | 0.102 | > 50 | 0.009 | 0.098 | 1.91 | > 50 | 0.615 |  |
| 5123_A06 (PGT-125) (antibody) | > 10 | 0.0214 | > 50 | > 50 | > 50 | 0.361 | 0.03 | 30.1 | > 50 | > 50 | 2.84 |  |
